The text below walks through data of patent US20080260750A1 (MCGILL UNIVERSITY, published 2008).

First the molecules themselves.
B2: ACC-2D6.3 acetylcholine-gated chloride channel subunit (receptor)
chain: DYSELVHSAELVSSSSYIHHKTNKKPDNCTRDTDIIDRLLNGTGYNKFRIPQEEGMTVVVEIWIQAITSIDELTNDFDMDIYITETWLDPALNFQTMTPCKGNLSLNHQVLDRLWTPNSCFINSKVAQIHNSPFRSVFLMLFPNGTVMVNYRVRVKGPCSLDLSNFPLDLQKCSLIYESFNYNRQEVEMRWSDAEHPVFNLSKIMLPDFDLFEIQTERRQEPYPAGMWDELHVTIIFERRFIWYFMQAYLPTYLTIFISWISFSLGSRAIPARTMLGVNSLLAIVFSFGNIMRNLPRVSYIKGIDVWMLVSMTFIFCSLLELAIVGFMVRDETVAKKKQQKKISGNISREESPHGIISERRFMFPPGCSESSKSLSSCTSGWTPERIDSISSVMFPFSFFVFNIIYWFYYIHRKEIIKQNLINRVDG
notes: Expressed from cRNA in Xenopus oocytes; also called ACC-2D6.3 receptor; ACC-2D6.3 channel

In test [1] the target is T1, ACC-3D10.5 acetylcholine-gated chloride channel subunit (C. elegans, UniProt G5EDN0 20-517).
T1 sequence: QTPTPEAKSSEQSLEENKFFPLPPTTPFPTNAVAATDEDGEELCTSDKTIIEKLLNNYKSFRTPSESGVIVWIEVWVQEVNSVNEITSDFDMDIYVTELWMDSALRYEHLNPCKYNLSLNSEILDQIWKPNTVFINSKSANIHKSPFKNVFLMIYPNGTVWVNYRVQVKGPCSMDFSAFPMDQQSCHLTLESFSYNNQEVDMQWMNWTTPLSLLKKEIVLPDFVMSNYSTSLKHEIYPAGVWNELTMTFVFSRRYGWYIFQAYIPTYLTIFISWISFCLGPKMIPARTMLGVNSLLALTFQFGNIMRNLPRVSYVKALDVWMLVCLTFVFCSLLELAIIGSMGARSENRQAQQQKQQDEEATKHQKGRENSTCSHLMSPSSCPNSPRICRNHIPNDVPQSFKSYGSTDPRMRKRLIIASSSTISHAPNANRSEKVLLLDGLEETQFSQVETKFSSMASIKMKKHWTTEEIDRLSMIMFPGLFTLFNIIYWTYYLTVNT
The test is described as follows: co-expression in Xenopus oocytes, two-electrode voltage clamp (inferred from changed desensitization, EC50 and Hill coefficient for ACh).
Protocol: (§1) Oocytes were injected with 40 nl of cRNA using the Nanoject system (Drummond Scientific, Broomall, Pa., USA). Injected oocytes were incubated at 20° C. in ND96 supplemented with 100 mg/ml gentamycin and 550 mg/ml pyruvate. Oocytes were allowed to express cRNA for two days before measurements were taken.

Test [2] has as its target T1, ACC-3D10.5 acetylcholine-gated chloride …. The test is described as follows: co-expression in Xenopus oocytes, two-electrode voltage clamp (inferred from loss of the ACh response).
Protocol: as §1
Test [3] concerns the target B2. Described as above.
Protocol: as §1

B1: ACC-1G6.4 acetylcholine-gated chloride channel subunit (receptor)
chain: QSLDNCANDTEIINALLKDSYNKHYIPSHPTHVRVDMWVQEVTSVSELTQDFEIDLYINEFWEDPALVYEDMNPCKRNISFDDKVLQRLWLPNTCFINSKSAAIHESPFKNVFLMVFSNGTLWTNYRMKLTGPCDMKLKRFPFDKQKCYLTFESFNYNTGEVRMQWNQPYPVILLKRIELPDFKLVNFSVIAVEQMYPAGWWDELTVAFVFERRYGWYVLQGYIPTMVTIVISWISFYLGPRAIPARTMLGVNSLLAMTFQFGNIIRNLPRVSYVKAIDVWMLSGMLFIFLSLLELAVVGFMSRNEGLPPKVKKRKRQEDDDEGFSWKSMQTSPHLELRQFWVDKRVNSLRNDSAVPPVEDYAPMELEQPYQNITKRREKRKWMSGLRKKWRAMRELRPETVDFYSAIFFPTAYMLFNISYWSFYLTSLSEYFDEDVNIDQP
notes: Expressed from cRNA in Xenopus oocytes; also called ACC-1G6.4 receptor; ACC-1G6.4 channel
In the case of B1, the binding result in test [1] was “binds”.
Regarding B2, the binding result in test [2] is recorded as “binds”.

B3: ACC-4E9.9 acetylcholine-gated chloride channel subunit (receptor)
chain: LLRSLEDDSNECMFNCPKRARNVSVPHTEKTCMGDDAIIAQILDGYNKLDLPGGGHVVVSIEIWVQEVSKIIEITSEFELDIYVTERWTDPSLAYSHLNPCKSNMSVDGATILNKIWNPHACFVNSKLANIHESPFKNIFLQIYSNGSIWHNYRIKLTGPCSSTLRTFPIDQQRCMLFYESFTHNTDQVKMEWITTVPPITILKGNITLPDYVLVDFSSSSELRLYPPGIFNELIATFTFQRLYGFYILQVYVPAYISVFISWVSFTLGAEQIPSRTTVGVNSLLALTFQFGAVVNNLPKTSDVKAIDVWILSSMAFIFASLIELAVVGYLSRDGQHGSIKCRCSWLCMNCKDWTALKIDQMSSIVFPVSFLAFNIWYWFIFLGKLLVRTI
In the case of B3, in test [3], the binding result is “binds”.
